Reference: PMC10154330, “Machine learning-driven multifunctional peptide engineering for sustained ocular drug delivery” (Nature Communications, 2023)
Where two headings read alike, the source gives them in different places. Peptide text beside a SMILES is read from it. * marks the point of attachment. X1 = CC(C)[C@H](NC(=O)CCCCCN1C(=O)CC(*)C1=O)C(=O)N[C@@H](CCCNC(N)=O)C(=O)Nc1ccc(C[N+]2=C(Nc3ccc4nccnc4c3Br)NCC2)cc1

Tests used:
[1] = In vitro stability of HR97-brimonidine conjugate in human aqueous or vitreous; type: in vitro ADME; details: for remaining at 24 h, 1 mg/mL / remaining at 168 h, 1 mg/mL / remaining at 336 h, 1 mg/mL / remaining at 672 h, 1 mg/mL: male, human, human aqueous humor (donor eyes, 0.02 µm filtered), stability in human aqueous humor, read-out: Normalized HR97-VC-PAB-brimonidine (%)
Protocol: Two pairs of human donor eyes were obtained from the Lions Gift of Sight under protocol IRB00056984 approved by the Johns Hopkins University School of Medicine Institutional Review Board. Both donors were male with an mean age of 74.5. The post-mortem times ranged from 35–40 h. The eyes were kept at 4 °C during transport and arrived within 48 h post-mortem. The vitreous and aqueous were first isolated and subsequently combined and filtered through the 0.02 µm syringe filter to remove cell debris. HR97-brimonidine (1 mg/mL) was incubated with human aqueous or vitreous (700 µL) at 37 °C (n = 3). On days 0, 1, 7, 14, 21 and 28, 100 µL of the solutions were collected, diluted with 900 µL of acetonitrile, and characterized by HPLC (Prominence LC2030, Shimadzu) with Luna® 5 µm C18(2) 100 Å LC column 250 × 4.6 mm (Phenomenex). The elution flow rate was 1 mL/min and with gradient of 10/90/90/10% solvent B (TFA 0.1% in ACN) in 1/11/13/15 min at λmax = 250 nm for HR97-brimonidine (RT = 4.6 min).

[2] = system: melanin nanoparticles (mNPs); assay: In vitro melanin binding assay (binding capacity and Kd, RED device, HPLC); design: species or system Sepia officinalis; details: for Binding Capacity (mole/mg melanin) / Kd: binding capacity and dissociation constant of ocular drugs, melanin
Protocol: The solutions (400 µL) were then mixed thoroughly with 400 µL of 1 mg/mL mNPs in pH 6.5 PBS solution and transferred to the inner reservoir of the rapid equilibrium dialysis (RED) device inserts (8 K MWCO). The outer reservoir was filled with 800 µL of pH 6.5 PBS solution. The samples were incubated on an orbital shaker with temperature control at 37 °C and 300 rpm for 48 h (n = 3). The solutions from outer reservoir (free drug) were than collected and transferred to an autosampler vial for HPLC analysis (Prominence LC2030, Shimadzu, Columbia, MD) with photodiode-array detection (PDA) system. […] The amount of bound drug was used to calculate the binding capacity (mol drug/mg melanin) and the dissociation constant (Kd) as previously described[20],[34].

intraocular pressure = assay: IOP measurement in normotensive Dutch Belted rabbits; type: in vivo
Protocol: (§1) For the IOP measurements in normotensive rabbits, Dutch Belted rabbits (2–3 kg) were used (n = 5). IOP was measured with a hand-held rebound tonometer icareTONOVET (Vantaa, Finland) in the awake and gently restrained rabbit. Each rabbit was acclimatized to the IOP measurement procedure for at least 5 days to obtain a stable background IOP reading. A mean of three IOP measurements for an individual eye were taken every other day for 6 days (3 times in total) and used as a baseline value. For the ICM injection procedure, rabbits were anesthetized with ketamine/xylazine and received topical anesthesia with 0.5% proparacaine hydrochloride. A corneal pre-puncture was performed with a 30 G needle, followed with a single bolus ICM injection of 200 µg (mass of brimonidine) of HR97-brimonidine or brimonidine tartrate solution in 100 µL saline using a 28 G needle. After the procedure, topical bacitracin-neomycin-polymyxin ophthalmic ointment was applied to both eyes to prevent infection and dry eyes. On day 7, an ophthalmologist masked to treatment evaluate the HR97-brimonidine injected eyes with the following items: functionality of lids, lashes, conjunctiva, cornea transparency, pigmentation of corneal endothelium, depth of anterior chambers, inflammation, fibrin strands, and symmetry of the lens[113]. […] In a separate study, a corneal pre-puncture was performed with a 30 G needle, followed with a single bolus ICM injection of 200 µg (mass of brimonidine) containing a physical mixture of unconjugated HR97 and brimonidine tartrate (HR97 + brimonidine), the equivalent amount of HR97 peptide alone, or saline alone in 100 µL saline. On day 7, day 14, day 21, and day 28, an ophthalmologist masked to treatment performed the same safety evaluations described above. IOP was measured on days 2, 3, 4, 5, 6, 7, 8, 10, 12, 14, 16, 18, and 20 after the ICM injection, and change in IOP from the baseline (ΔIOP) was reported. The mean of three IOP measurements was taken for each eye by one observer, and then confirmed by a masked observer. Alternatively, a single topical eye drop (Alphagan® P 0.1%, 50 µL) was given (n = 5). The IOP were measured immediately before the topical dosing (0 h), and at 2, 4, 6 and 8 h after the eyedrop administration. For the pharmacokinetics studies, rabbits (n = 4 per group) received a single ICM injection with 200 µg (mass of brimonidine) HR97-brimonidine as described above. Rabbits were sacrificed 1, 7, 14, 28 days after the injection, and iris, aqueous, and retina were collected for measuring the brimonidine concentration.

[3] = Ocular safety evaluation / ocular grading after ICM injection; details: single ICM injection, 200 µg brimonidine equivalent
Protocol: as §1

[4] = system: human cathepsins B, K, L, and S; assay: Cathepsin cleavage assay
[5] = Brimonidine in ocular tissues after ICM injection (LC-MS/MS); details: LC-MS/MS
Protocol: as §1
Brimonidine concentrations in ocular tissues were measured by liquid chromatography-tandem mass spectrometry (LC-MS/MS) as previously described. All samples were collected in pre-weighed tubes and stored at −80 °C until processing for analysis. Tissue samples were homogenized in 100–600 μL 1 × PBS using a Bullet Blender® (Next Advance, Inc, Troy, NY, USA) before extraction. Brimonidine were extracted from 15 to 50 μL of tissue homogenates with 50 μL of acetonitrile containing 50/50/2.5 ng/mL of the internal standards. The top layer was then transferred to an autosampler vial for LC-MS/MS analysis after centrifugation. All ocular tissue samples were analyzed using a 1 × PBS standard curve for brimonidine. […] The column effluent was monitored using a 5500 mass-spectrometric detector (Sciex) using electrospray ionization operating in positive mode. The mobile phase A was water containing 0.1% formic acid and mobile phase B was acetonitrile containing 0.1% formic acid. The gradient started with mobile phase B held at 20% for 0.5 min and increased to 100% over 0.5 min; 100% mobile phase B was held for 1 min and then returned to 20% mobile phase B and allowed to equilibrate for 1 min.

[6] = 28 days after single ICM injection of HR97-brimonidine (200 µg brimonidine equivalent), n = 3-4

Question: Which remaining at 24 h, 1 mg/mL ([1]; day 1, replicate 1) does the source give for `CC(C)[C@H](NC(=O)CCCCCN1C(=O)CC(SC[C@H](NC(=O)[C@H](CCCNC(=N)N)NC(=O)[C@@H]2CCCN2C(=O)[C@H](CCCCN)NC(=O)[C@H](CCCNC(=N)N)NC(=O)[C@H](CCCCN)NC(=O)[C@H](CCCNC(=N)N)NC(=O)[C@H](CCCNC(=N)N)NC(=O)[C@H](CCCCN)NC(=O)CNC(=O)[C@H](CO)NC(=O)[C@@H](N)Cc2ccccc2)C(=O)O)C1=O)C(=O)N[C@@H](CCCNC(N)=O)C(=O)Nc1ccc(C[N+]2=C(Nc3ccc4nccnc4c3Br)NCC2)cc1` (stereo partly shown) [HR97-VC-PAB-brimonidine] (H-FSGKRRKRKPRC(X1)-OH; N-terminus and C-terminus assumed) here?
Answer: 99.1%

Question: And the remaining at 24 h, 1 mg/mL ([1]; day 1, replicate 2)?
Answer: 93.5%

Question: What about the remaining at 24 h, 1 mg/mL ([1]; day 1, replicate 3) of the same molecule?
Answer: 95.5%

Question: What about the remaining at 168 h, 1 mg/mL ([1]; day 7, replicate 1) of the same molecule?
Answer: 90.8%

Question: What about the remaining at 168 h, 1 mg/mL ([1]; day 7, replicate 2) of the same molecule?
Answer: 101%

Question: What about the remaining at 168 h, 1 mg/mL ([1]; day 7, replicate 3) of the same molecule?
Answer: 96.4%

Question: What about the remaining at 336 h, 1 mg/mL ([1]; day 14, replicate 1) of the same molecule?
Answer: 92.6%

Question: And the remaining at 336 h, 1 mg/mL ([1]; day 14, replicate 2)?
Answer: 95.3%

Question: What about the remaining at 336 h, 1 mg/mL ([1]; day 14, replicate 3) of the same molecule?
Answer: 93.9%

Question: What about the remaining at 672 h, 1 mg/mL ([1]; day 28, replicate 1) of the same molecule?
Answer: 88.5%

Question: What about the remaining at 672 h, 1 mg/mL ([1]; day 28, replicate 2) of the same molecule?
Answer: 95%

Question: And the remaining at 672 h, 1 mg/mL ([1]; day 28, replicate 3)?
Answer: 92.3%

Question: With `CC1(C)O[C@@H]2C[C@H]3[C@@H]4CCC5=CC(=O)C=C[C@]5(C)[C@@]4(F)[C@@H](O)C[C@]3(C)[C@]2(C(=O)CO)O1` [Triamcinolone Acetonide] as the molecule, how does the “Binding Capacity (mole/mg melanin)” value [2] read?
Answer: 2.24E-08 mole/mg melanin

Question: What about the Kd [2] of the same molecule?
Answer: 12.5 µM

Question: What does the source list for `COCCc1ccc(OCC(O)CNC(C)C)cc1` (stereo not shown) [Metoprolol]?
Answer: Binding Capacity (mole/mg melanin) [2]: 2.69E-08 mole/mg melanin; Kd [2]: 495 µM

Question: Which “Binding Capacity (mole/mg melanin)” value [2] does the source give for `CCN(CC)CCCC(C)Nc1ccnc2cc(Cl)ccc12` (stereo not shown) [Chloroquine] here?
Answer: 3.8e-7 mole/mg melanin

Question: What about the Kd [2] of the same molecule?
Answer: 76 µM

Question: For “FSGKRRKRKPRC [HR97-brimonidine, HR97 peptide conjugated to brimonidine via a quaternary-ammonium traceless linker (MC-Val-Cit-PAB)]”, which “AUClast of cumulative ΔIOP, fold greater compared to brimonidine solution” value (intraocular pressure; 20-day measurement period after ICM injection, n = 5, p < 0.001) is on record?
Answer: ~ 17 fold

Question: And the “time during which mean ΔIOP remained significantly larger than with brimonidine solution or physical mixture” value (intraocular pressure; single ICM injection)?
Answer: up to 14 days

Question: What about the “peak ΔIOP at 2 days” value (intraocular pressure; single ICM injection, 200 µg brimonidine equivalent, n = 5) of the same molecule?
Answer: −4.9 ± 0.46 mmHg

Question: And the “time for the mean ΔIOP to return to baseline” value (intraocular pressure; single ICM injection, n = 5 per group)?
Answer: 20 days

Question: And the “duration of IOP lowering” value (intraocular pressure; single ICM injection, normotensive rabbits)?
Answer: up to 18 days

Question: And the “ocular toxicity, ophthalmologist evaluation on day 7” value [3]?
Answer: no apparent inflammation or fibrin strands

Question: What about the “cathepsin cleavage assay, Cathepsin” value ([4]; replicate 1) of the same molecule?
Answer: 47

Question: And the “cathepsin cleavage assay, Cathepsin” value ([4]; replicate 2)?
Answer: 58

Question: What about the “cathepsin cleavage assay, Cathepsin” value ([4]; replicate 3) of the same molecule?
Answer: 42

Question: What about the “brimonidine liberated with human cathepsin cocktails” value ([4]; conjugate 200 μM diluted 1:1 with 100 mM citrate buffer pH 5.5, 5 mM cysteine, cathepsins B, K, L, S 150 nM each, within 48 h, 37 °C, HPLC, normalized to 0 h, n = 3) of the same molecule?
Answer: ~ 52%

Question: What about the “Binding Capacity (mole/mg melanin)” value [2] of the same molecule?
Answer: 5.9e-7 mole/mg melanin

Question: And the Kd [2]?
Answer: 4.36 µM

Question: And the “increase in the in vitro melanin binding capacity of brimonidine by conjugation to HR97” value ([2]; versus brimonidine)?
Answer: ~ 10 fold

Question: What about the “brimonidine concentration in aqueous humor” value [5, 6] of the same molecule?
Answer: 0.4 ng/g

Question: What about the “brimonidine concentration in iris” value [5, 6] of the same molecule?
Answer: 980 ng/g

Question: What about the “brimonidine concentration in retina” value [5, 6] of the same molecule?
Answer: 8.3 ng/g

Question: What about the “brimonidine concentration in the aqueous” value ([5]; day 7 after single ICM injection of HR97-brimonidine) of the same molecule?
Answer: 83.3 ng/g

Question: And the “brimonidine concentration in the aqueous” value ([5]; day 14 after single ICM injection of HR97-brimonidine)?
Answer: 3.9 ng/g

Question: What about the “brimonidine released from the conjugate in human aqueous fluid” value ([1]; 1 mg/mL in human aqueous (donor eyes, 0.02 µm filtered), 37 °C, over 28 days, HPLC 250 nm, normalized to day 0, mean of n = 3) of the same molecule?
Answer: ~ 7%

Question: What does the source list for `CCNCCNC(=O)c1c(C)[nH]c(/C=C2\C(=O)Nc3ccc(F)cc32)c1C` [N-Desethyl Sunitinib]?
Answer: Binding Capacity (mole/mg melanin) [2]: 2.61e-6 mole/mg melanin; Kd [2]: 2.13 µM

Question: For `CC(C)(C)NC[C@H](O)COc1nsnc1N1CCOCC1` [Timolol], which “Binding Capacity (mole/mg melanin)” value [2] is on record?
Answer: 3.9e-8 mole/mg melanin

Question: What about the Kd [2] of the same molecule?
Answer: 120 µM

Question: With `CC12CC3CC(C)(C1)CC(N)(C3)C2` [Memantine] as the molecule, how does the “Binding Capacity (mole/mg melanin)” value [2] read?
Answer: 2.07e-7 mole/mg melanin

Question: And the Kd [2]?
Answer: 804 µM
